Source: patent US5574018A, “Conjugates of vitamin B12 and proteins” (Amgen Inc., priority 1994, dated 1996)

Tests used:
Porcine IF = target: T1, Porcine IF (Sus scrofa, UniProt A0A8D1ENZ1); experiment: Intrinsic factor binding affinity, competition binding assay with 57Co-cyanocobalamin (Scatchard); details: for Kd: association constant, porcine IF, conjugate 123 nM, 30 min
T1 construct: purchased Sigma Chemical Company, St. Louis, Mo
Method: The binding affinity of conjugates of VB12 and therapeutic proteins to intrinsic factor (IF) was determined using a competition binding assay based on the procedure described by Mathan et al. in the Journal of Clinical Investigation, Volume 54, pages 598-608 (1974). The assay was conducted in phosphate buffered saline (PBS) containing 1 mM calcium chloride, 0.5 mM magnesium chloride and 1% by weight of bovine serum albumin (BSA) devoid of IF and cyanocobalamin (Sigma Chemical Company, St. Louis, Mo.). Porcine IF (final concentration 1.845 nM) was added to a large excess of the VB12 -protein conjugate (123 nM), together with a range of concentrations of ^57 Co-cyanocobalamin ([…] to 12.3 nM), specific activity 10-20 μCi/μg, in a final volume of 600 μl of PBS. The solution was vortexed and incubated at room temperature for thirty minutes, before adding 1 ml of freshly prepared dextran-coated charcoal (0.5% by weight of charcoal, 0.1% by weight of dextran in PBS) at 4° C. After incubation for ten minutes, the mixture was centrifuged for fifteen minutes at 1000×G (2500 rpm) and 4° C. in a IEC Centra-8R benchtop centrifuge, VWR Scientific, South Plainfield, N.J. The supernatant was decanted from the resulting pellet and assayed in a Cobra 2000 Gamma counter (Hewlett-Packard, Palo Alto, Calif.) to determine the amount of bound ^57 Co-cyanocobalamin.
The ratio of bound to free ^57 Co-cyanocobalamin versus the bound concentration of ^57 Co-cyanocobalamin was plotted according to the method of Scatchard, Annals of the New York Academy of Science, Volume 51, pages 660-672 (1949).
-Slope=-Kapp =-KL /(1+Kc [Lf ])
Kc =binding affinity of conjugate
KL =binding affinity of cyanocobalamin
[Lf ]=concentration of unbound conjugate
The use of a large excess of the conjugate permitted the value of [Lf ] to be treated as a constant (123 nM).

[1] = system: exhypoxic polycythemic mice; experiment: In vivo exhypoxic polycythemic mouse assay of VB12-EPO conjugates; details: i.p., vs EPO
Method: The hematopoietic activity of EPO after conjugation to 5'-O-[glutaroyl]cyanocobalamin was determined in vivo in exhypoxic polycythemic mice using the procedure of Cotes and Bingham described in Nature, Volume 191, pages 1065-1067 (1961).
The dilution of the complexes prior to intraperitoneal (i.p.) injection was based on the protein content derived from the A280 of the sample.

[2] = Stupperich and Nexo 1991; cited from earlier work
mouse bone marrow cells = experiment: In vitro thymidine uptake assay of VB12-G-CSF conjugates; assay type: cell-based; details: for Biological Activity of Conjugate, % activity compared to nonconjugated protein: vs G-CSF
Method: The bioactivity of VB12 -G-CSF in vitro after conjugation to 5'-O-[glutaroyl]cyanocobalamin was determined by measuring the stimulated in vitro uptake of ^3 H-thymidine into mouse bone marrow cells.
Bone marrow cells were collected from the hind legs of female Balb/C mice by flushing the bone with PBS. The cells were purified on a Ficoll-Paque density gradient (Pharmacia) and cultured in McCoys' 5A medium with 10% fetal bovine serum (FBS), 10 mM sodium pyruvate, 1×minimum essential medium (MEM) amino acids, 40 micromolar (μM) of essential amino acids, 0.04% by weight of sodium bicarbonate, 1×MEM vitamin solution, 10 mM L-glutamine and 0.005% by weight of gentamicin sulfate. After incubation for two hours at 37° C. under a 5% carbon dioxide-containing atmosphere, non-adherent cells were collected in the supernatant and the number of viable cells was counted in a hemocytometer.
A standard curve was prepared over a range from 0.07 to 1500 Units of G-CSF per milliliter (U/ml), and the complexes were diluted to about 0.3 to 30 U/ml prior to being assayed. To a 96-well plate was added, in triplicate, 100 μl of the standard or test material and 100 μl of culture medium containing 4×10^4 non-adherent mouse bone marrow cells. After incubating the plates for sixty eight hours at 37° C. under a 5% carbon dioxide atmosphere, 0.5 μCi of thymidine [methyl-3H], 20 Ci/mmol (NEN, Boston, Mass.) was added to each well. The plates were incubated as before for an additional five hours. The cells were collected on filter paper, rinsed with water (ten times) and ethanol (one time), and then counted in Biofluor scintillation fluid in a beta plate scintillation counter (LKB, Piscataway, N.J., Model 1205-001).
The bioactivity of the test material, in Units per milligram (U/mg), was determined from the standard curve of the G-CSF stimulated uptake of thymidine [methyl-^3 H].

[3] = Binding analysis of recombinant rat IF (rrIF)

T1 sequence (A0A8D1ENZ1 29-425): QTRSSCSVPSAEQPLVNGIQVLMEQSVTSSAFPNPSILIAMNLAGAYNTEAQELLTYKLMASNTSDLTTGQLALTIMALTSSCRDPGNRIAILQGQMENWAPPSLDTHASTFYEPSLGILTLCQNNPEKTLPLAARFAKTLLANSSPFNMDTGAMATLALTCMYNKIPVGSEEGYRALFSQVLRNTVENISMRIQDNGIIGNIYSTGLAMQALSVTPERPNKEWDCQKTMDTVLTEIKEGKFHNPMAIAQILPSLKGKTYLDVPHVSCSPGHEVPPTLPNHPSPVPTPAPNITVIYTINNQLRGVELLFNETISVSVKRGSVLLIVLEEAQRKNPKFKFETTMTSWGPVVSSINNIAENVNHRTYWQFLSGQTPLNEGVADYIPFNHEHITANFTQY

5'-O-[glutaroyl]-cyanocobalamin [Example 1]
Kd (Porcine IF): 1.35 nM

Example 13: conjugate of 5'-O-[glutaroyl]cyanocobalamin-adipic-1,6-dihydrazide with periodate-treated EPO (through sialic acids)
Biological Activity of Conjugate, % activity compared to nonconjugated protein [1]: 33 ± 14%

native human IF: native human intrinsic factor, literature value
binding affinity (Ka) of native human IF [2]: 2e+10 M⁻¹

B1: Example 2: conjugate of 5'-O-[glutaroyl]cyanocobalamin with G-CSF via the N-hydroxysuccinimide derivative (conjugate, UniProt P09919 31-207, looked up)
Granulocyte …: TPLGPASSLPQSFLLKCLEQVRKIQGDGAALQEKLVSECATYKLCHPEELVLLGHSLGIPWAPLSSCPSQALQLAGCLSQLHSGLFLYQGLLQALEGISPELGPTLDTLQLDVADFATTIWQQMEELGMAPALQPTQGAMPAFASAFQRRAGGVLVASHLQSFLEVSYRVLRHLAQP
modifications: cyanocobalamin conjugate
notes: conjugate of 5'-O-[glutaroyl]cyanocobalamin with G-CSF via the N-hydroxysuccinimide derivative
Kd (Porcine IF): 2.22 nM

B2: Example 8: conjugate of 5'-O-[glutaroyl]cyanocobalamin with a polyethylene glycol derivative of G-CSF (conjugate, UniProt P09919 31-207, looked up)
Granulocyte …: TPLGPASSLPQSFLLKCLEQVRKIQGDGAALQEKLVSECATYKLCHPEELVLLGHSLGIPWAPLSSCPSQALQLAGCLSQLHSGLFLYQGLLQALEGISPELGPTLDTLQLDVADFATTIWQQMEELGMAPALQPTQGAMPAFASAFQRRAGGVLVASHLQSFLEVSYRVLRHLAQP
modifications: PEG; cyanocobalamin conjugate
notes: conjugate of 5'-O-[glutaroyl]cyanocobalamin with a polyethylene glycol derivative of G-CSF
retention of non-conjugated VB12 binding affinity (Porcine IF): 1.6%
Kd (Porcine IF): 10.8 nM
Biological Activity of Conjugate, % of G-CSF (mouse bone marrow cells): 4.4 % of G-CSF
Biological Activity of Conjugate, % of PEG-G-CSF (mouse bone marrow cells): 38 % of PEG-G-CSF

B3: Example 10: conjugate with G-CSF via N-hydroxysuccinimidyl ester of 5'-O-[glutaroyl]cyanocobalamin-8-aminocaprylic acid (conjugate, UniProt P09919 31-207, looked up)
Granulocyte …: TPLGPASSLPQSFLLKCLEQVRKIQGDGAALQEKLVSECATYKLCHPEELVLLGHSLGIPWAPLSSCPSQALQLAGCLSQLHSGLFLYQGLLQALEGISPELGPTLDTLQLDVADFATTIWQQMEELGMAPALQPTQGAMPAFASAFQRRAGGVLVASHLQSFLEVSYRVLRHLAQP
modifications: cyanocobalamin conjugate via aminocaprylic linker
notes: conjugate with G-CSF via N-hydroxysuccinimidyl ester of 5'-O-[glutaroyl]cyanocobalamin-8-aminocaprylic acid
Kd (Porcine IF): 1.89 nM
Biological Activity of Conjugate, % activity compared to nonconjugated protein (mouse bone marrow cells): 60%

B4: Example 7: conjugate of 5'-O-[glutaroyl]cyanocobalamin with G-CSF via 12-aminododecylamido-dithiopyridylpropionate (conjugate, UniProt P09919 31-207, looked up)
Granulocyte …: TPLGPASSLPQSFLLKCLEQVRKIQGDGAALQEKLVSECATYKLCHPEELVLLGHSLGIPWAPLSSCPSQALQLAGCLSQLHSGLFLYQGLLQALEGISPELGPTLDTLQLDVADFATTIWQQMEELGMAPALQPTQGAMPAFASAFQRRAGGVLVASHLQSFLEVSYRVLRHLAQP
modifications: cyanocobalamin conjugate via disulfide linker
notes: conjugate of 5'-O-[glutaroyl]cyanocobalamin with G-CSF via 12-aminododecylamido-dithiopyridylpropionate
Kd (Porcine IF): 4 nM
Biological Activity of Conjugate, % activity compared to nonconjugated protein (mouse bone marrow cells): 33%

B5: rrIF: recombinant form of rat IF produced in Chinese hamster ovary cells (protein, UniProt P17267 19-417, looked up)
Cobalamin binding intrinsic …: STRAQRSCSVPPDQQPWVNGLQLLMENSVTESDLPNPSILIAMNLASTYNLEAQKLLTYQLMASDSADLTNGQLALTIMALTSSCRDPGSKVSILQKNMESWTPSNLGAESSSFYGPALAILALCQKNSEATLPIAVRFAKTLMMESSPFSVDTGAVATLALTCMYNRIPVGSQENYRDLFGQALKVIVDNISLRIKADGIIGDIYSTGLAMQALSVTPEQPTKEWDCEKTMYTILKEIKQGKFQNPMSIAQILPSLKGKTYLDVPQVTCGPDHEVPPTLTDYPTPVPTSISNITVIYTINNQLRGVDLLFNVTIEVSVKSGSVLLAVLEEAQRRNHMFKFETTMTSWGLIVSSINNIAENVKHKTYWEFLSGKTPLGEGVAYYIPFNYEHITANFTQY
binding affinity (Ka) of rrIF [3]: 8.58e+09 M⁻¹
